Source: patent US20180003631A1

Experiments:
[1] = molecular target: rNav1.2a/Kv2.1 VSD IV chimera containing the R1629A/L1630A substitutions (rat), P15387; assay: cell-based or functional assay
[2] = molecular target: T1, rNav1.2a/Kv2.1 VSD IV paddle chimera (WT paddle) (rat), P15387; assay: cell-based or functional assay
T1 chain: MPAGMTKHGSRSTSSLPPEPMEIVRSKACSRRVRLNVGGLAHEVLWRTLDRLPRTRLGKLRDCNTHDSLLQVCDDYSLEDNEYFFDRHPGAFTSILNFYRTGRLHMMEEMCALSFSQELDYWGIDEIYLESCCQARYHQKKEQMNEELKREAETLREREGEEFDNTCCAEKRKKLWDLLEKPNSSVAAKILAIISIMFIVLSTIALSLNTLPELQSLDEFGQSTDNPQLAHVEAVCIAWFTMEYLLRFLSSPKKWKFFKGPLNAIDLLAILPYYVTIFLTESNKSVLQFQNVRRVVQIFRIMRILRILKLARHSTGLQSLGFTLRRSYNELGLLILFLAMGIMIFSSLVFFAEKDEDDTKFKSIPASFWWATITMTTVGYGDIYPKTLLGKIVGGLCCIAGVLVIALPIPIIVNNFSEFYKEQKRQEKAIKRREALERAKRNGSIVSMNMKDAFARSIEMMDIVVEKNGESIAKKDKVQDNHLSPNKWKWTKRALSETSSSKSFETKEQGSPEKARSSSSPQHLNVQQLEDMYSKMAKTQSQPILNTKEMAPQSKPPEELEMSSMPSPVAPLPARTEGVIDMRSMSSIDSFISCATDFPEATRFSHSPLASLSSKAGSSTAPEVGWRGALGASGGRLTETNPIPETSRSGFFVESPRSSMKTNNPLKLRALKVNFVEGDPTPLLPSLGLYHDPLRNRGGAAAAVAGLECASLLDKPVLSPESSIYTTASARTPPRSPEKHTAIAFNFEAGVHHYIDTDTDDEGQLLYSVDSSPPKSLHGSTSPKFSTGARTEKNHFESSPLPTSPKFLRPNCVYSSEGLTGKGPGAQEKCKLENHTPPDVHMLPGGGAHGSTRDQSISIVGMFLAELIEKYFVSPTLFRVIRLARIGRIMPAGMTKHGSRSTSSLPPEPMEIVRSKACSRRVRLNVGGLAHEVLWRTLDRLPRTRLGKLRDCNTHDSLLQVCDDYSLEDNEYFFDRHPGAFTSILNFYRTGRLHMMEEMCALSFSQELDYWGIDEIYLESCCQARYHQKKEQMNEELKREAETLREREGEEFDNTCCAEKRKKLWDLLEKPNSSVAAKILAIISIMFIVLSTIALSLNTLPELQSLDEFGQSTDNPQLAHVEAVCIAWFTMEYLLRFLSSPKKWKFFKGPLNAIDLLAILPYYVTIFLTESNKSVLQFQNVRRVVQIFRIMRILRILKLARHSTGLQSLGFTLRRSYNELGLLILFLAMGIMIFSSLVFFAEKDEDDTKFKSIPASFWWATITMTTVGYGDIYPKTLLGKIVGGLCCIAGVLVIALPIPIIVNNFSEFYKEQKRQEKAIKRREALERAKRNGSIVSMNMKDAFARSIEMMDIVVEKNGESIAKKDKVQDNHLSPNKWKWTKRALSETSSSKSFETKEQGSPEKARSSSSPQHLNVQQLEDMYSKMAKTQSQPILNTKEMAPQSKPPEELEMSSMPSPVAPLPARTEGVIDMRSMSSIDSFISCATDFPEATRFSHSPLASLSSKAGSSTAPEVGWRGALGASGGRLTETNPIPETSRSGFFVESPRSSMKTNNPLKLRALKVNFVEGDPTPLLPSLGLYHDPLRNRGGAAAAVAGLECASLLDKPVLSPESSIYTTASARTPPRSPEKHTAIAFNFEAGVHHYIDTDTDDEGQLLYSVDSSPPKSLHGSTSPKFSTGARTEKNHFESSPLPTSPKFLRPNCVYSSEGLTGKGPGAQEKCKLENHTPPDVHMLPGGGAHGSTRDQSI

[3] = molecular target: T2, isolated rNav1.2a VSD IV paddle peptide with R1629A/L1630A substitutions and C-terminal K-linked biotin (rat); assay: site 1 of heterogeneous ligand model (ka1)
[4] = molecular target: T2, isolated rNav1.2a VSD IV paddle peptide …; assay: site 1 of heterogeneous ligand model (kd1)
[5] = molecular target: T2, isolated rNav1.2a VSD IV paddle peptide …; assay: site 2 of heterogeneous ligand model (ka2)
[6] = molecular target: T2, isolated rNav1.2a VSD IV paddle peptide …; assay: site 2 of heterogeneous ligand model (kd2)
[7] = molecular target: T2, isolated rNav1.2a VSD IV paddle peptide …; assay: SPR (Biacore T200), heterogeneous ligand model, site 1
[8] = molecular target: T2, isolated rNav1.2a VSD IV paddle peptide …; assay: SPR (Biacore T200), heterogeneous ligand model, site 2
[9] = molecular target: T2, isolated rNav1.2a VSD IV paddle peptide …; assay: SPR (Biacore T200), heterogeneous ligand model, site 1, n=3, mean±SD; site 1, high affinity KD1, n=3
[10] = molecular target: T2, isolated rNav1.2a VSD IV paddle peptide …; assay: SPR (Biacore T200), heterogeneous ligand model, site 2, n=3, mean±SD; site 2, lower affinity KD2, n=3

B1: AaHII from Androctonus australis hector, P01484 20-83 (peptide)
chain: VKDGYIVDDVNCTYFCGRNAYCNEECTKLKGESGYCQWASPYGNACYCYKLPDHVRTKGPGRCH
modifications: not checked
[1]
  apparent KD (from K+ current inhibition, two-electrode voltage clamp, Xenopus oocytes): 193 nM
[2]
  apparent KD (from K+ current inhibition, two-electrode voltage clamp, Xenopus oocytes): 1010 nM
[3]
  kon: 2330 M⁻¹ s⁻¹
[4]
  koff: 0.000979 s⁻¹
[5]
  kon: 38200 M⁻¹ s⁻¹
[6]
  koff: 0.0281 s⁻¹
[7]
  RUmax1: 135 RU
[8]
  RUmax2: 23 RU
[9]
  Kd: 479 nM
[10]
  Kd: 747 nM
